The text below walks through data of patent US20160022834A1.

This experiment has as its target rat anti-DNP (IgG^DNP, clone: LO-DNP-2) photocrosslinked with IBA-biotin. As to the kind of experiment: ELISA, anti-Fc HRP secondary on UV exposed IBA-biotin photocrosslinked IgG^DNP (antigen-bound or directly adsorbed), relative to no UV. Background: In an ELISA, binding on a coated surface is turned into a signal by an enzyme label.

Substance “HRP-conjugated IgG Fcγ specific goat anti-rat (antibody)” returned a Fc recognition (percent activity at 2.0 J/cm^2 UV) of 75%.
